Measured values from patent EP4707292A2 (The University of North Carolina at Chapel Hill, dated 2026).

Assays:
[1] = target: T1, Adeno-associated virus 9 (AAV9) virion (adeno-associated virus 9); test: co-IP with ADK9/LC-MS/MS, AAV9 + human serum vs control
T1 construct: Intact virion; capsid of VP1, VP2, VP3; also called AAV9/luc; AAV9 capsid

[2] = target: T1, Adeno-associated virus 9 (AAV9) virion; test: as above; remark: listed apart in the source
[3] = target: T2, Adeno-associated virus 8 (AAV8) virion (adeno-associated virus 8); test: co-IP/LC-MS/MS, AAV8 + human serum vs PBS control
T2 construct: Intact virion with packaged vector genome; capsid of 60 subunits (VP1, VP2, VP3, overlapping products of one cap gene); also called AAV8/luc; AAV8 capsid

Row | Binder | fold change [1] [fold] | Fold increase [2] [fold] | fold change [3] [fold]
1 | Fibrinogen alpha chain (other, from human serum, identified by MS; also called FGA) GPRVVERHQSACKDSDWPFCSDEDWNYKCPSGCRMKGLIDEVNQDFTNRINKLKNSLFEYQKNNKDSHSLTTNIMEILRGDFSSANNRDNTYNRVSEDLRSRIEVLKRKVIEKVQHIQLLQKNVRAQLVDMKRLEVDIDIKIRSCRGSCSRALAREVDLKDYEDQQKQLEQVIAKDLLPSRDRQHLPLIKMKPVPDLVPGNFKSQLQKVPPEWKALTDMPQMRMELERPGGNEITRGGSTSYGTGSETESPRNPSSAGSWNSGSSGPGSTGNRNPGSSGTGGTATWKPGSSGPGSTGSWNSGSSGTGSTGNQNPGSPRPGSTGTWNPGSSERGSAGHWTSESSVSGSTGQWHSESGSFRPDSPGSGNARPNNPDWGTFEEVSGNVSPGTRREYHTEKLVTSKGDKELRTGKEKVTSGSTTTTRRSCSKTVTKTVIGPDGHKEVTKEVVTSEDGSDCPEAMDLGTLSGIGTLDGFRHRHPDEAAFFDTASTGKTFPGFFSPMLGEFVSETESRGSESGIFTNTKESSSHHPGIAEFPSRGKSSSYSKQFTSSTSYNRGDSTFESKSYKMADEAGSEADHEGTHSTKRGHAKSRPVRDCDDVLQTHPSGTQSGIFNIKLPGSSKIFSVYCDQETSLGGWLLIQQRMDGSLNFNRTWQDYKRGFGSLNDEGEGEFWLGNDYLHLLTQRGSVLRVELEDWAGNEAYAEYHFRVGSEAEGYALQVSSYEGTAGDALIEGSVEEGAEYTSHNNMQFSTFDRDADQWEENCAEVYGGGWWYNNCQAANLNGIYYPGGSYDPRNNSPYEIENGVVWVSFRGADYSLRAVRMKIRPLVTQ | 1.75 | 4.95 | 1.75
2 | Fibrinogen beta chain (other, also called FGB) GHRPLDKKREEAPSLRPAPPPISGGGYRARPAKAAATQKKVERKAPDAGGCLHADPDLGVLCPTGCQLQEALLQQERPIRNSVDELNNNVEAVSQTSSSSFQYMYLLKDLWQKRQKQVKDNENVVNEYSSELEKHQLYIDETVNSNIPTNLRVLRSILENLRSKIQKLESDVSAQMEYCRTPCTVSCNIPVVSGKECEEIIRKGGETSEMYLIQPDSSVKPYRVYCDMNTENGGWTVIQNRQDGSVDFGRKWDPYKQGFGNVATNTDGKNYCGLPGEYWLGNDKISQLTRMGPTELLIEMEDWKGDKVKAHYGGFTVQNEANKYQISVNKYRGTAGNALMDGASQLMGENRTMTIHNGMFFSTYDRDNDGWLTSDPRKQCSKEDGGGWWYNRCHAANPNGRYYWGGQYTWDMAKHGTDDGVVWMNWKGSWYSMRKMSMKIRPFFPQQ | 1.43 | 4.97 | 1.43
3 | Fibrinogen gamma chain (other, also called FGG) YVATRDNCCILDERFGSYCPTTCGIADFLSTYQTKVDKDLQSLEDILHQVENKTSEVKQLIKAIQLTYNPDESSKPNMIDAATLKSRKMLEEIMKYEASILTHDSSIRYLQEIYNSNNQKIVNLKEKVAQLEAQCQEPCKDTVQIHDITGKDCQDIANKGAKQSGLYFIKPLKANQQFLVYCEIDGSGNGWTVFQKRLDGSVDFKKNWIQYKEGFGHLSPTGTTEFWLGNEKIHLISTQSAIPYALRVELEDWNGRTSTADYAMFKVGPEADKYRLTYAYFAGGDAGDAFDGFDFGDDPSDKFFTSHNGMQFSTWDNDNDKFEGNCAEQDGSGWWMNKCHAGHLNGVYYQGGTYSKASTPNGYDNGIIWATWKTRWYSMKKTTMKIIPFNRLTIGEGQQHHLGGAKQVRPEHPAETEYDSLYPEDDL | 1.6 | 4.85 | 1.6
4 | Plasminogen (other, also called PLG; PMG) EPLDDYVNTQGASLFSVTKKQLGAGSIEECAAKCEEDEEFTCRAFQYHSKEQQCVIMAENRKSSIIIRMRDVVLFEKKVYLSECKTGNGKNYRGTMSKTKNGITCQKWSSTSPHRPRFSPATHPSEGLEENYCRNPDNDPQGPWCYTTDPEKRYDYCDILECEEECMHCSGENYDGKISKTMSGLECQAWDSQSPHAHGYIPSKFPNKNLKKNYCRNPDRELRPWCFTTDPNKRWELCDIPRCTTPPPSSGPTYQCLKGTGENYRGNVAVTVSGHTCQHWSAQTPHTHNRTPENFPCKNLDENYCRNPDGKRAPWCHTTNSQVRWEYCKIPSCDSSPVSTEQLAPTAPPELTPVVQDCYHGDGQSYRGTSSTTTTGKKCQSWSSMTPHRHQKTPENYPNAGLTMNYCRNPDADKGPWCFTTDPSVRWEYCNLKKCSGTEASVVAPPPVVLLPDVETPSEEDCMFGNGKGYRGKRATTVTGTPCQDWAAQEPHRHSIFTPETNPRAGLEKNYCRNPDGDVGGPWCYTTNPRKLYDYCDVPQCAAPSFDCGKPQVEPKKCPGRVVGGCVAHPHSWPWQVSLRTRFGMHFCGGTLISPEWVLTAAHCLEKSPRPSSYKVILGAHQEVNLEPHVQEIEVSRLFLEPTRKDIALLKLSSPAVITDKVIPACLPSPNYVVADRTECFITGWGETQGTFGAGLLKEAQLPVIENKVCNRYEFLNGRVQSTELCAGHLAGGTDSCQGDSGGPLVCFEKDKYILQGVTSWGLGCARPNKPGVYVRVSRFVTWIEGVMRNN | 1.48 | 3.23 | 1.48
